Test results reported in US7375083B2, “Pharmaceutical compositions for prevention of overdose or abuse” (Shire LLC, priority 2003, dated 2008).
Where a SMILES comes first, the peptide text is derived from it. The star is where a group is joined. X1 = COc1ccc2c3c1O[C@H]1C(O*)=CC[C@H]4[C@@H](C2)N(C)CC[C@]314

Assays:
[1] = Oral pharmacokinetics in rats, plasma d-amphetamine by ELISA; conditions: for Percent AUC / Percent Cmax: Oral, relative to amphetamine (first value where two are given)
[2] = Oral bioavailability of hydrocodone conjugates in rats, LC/MS/MS; conditions: for hydrocodone plus hydromorphone concentration / AUC (ng/ml h) 0-8 h / Cmax / Percent HC (AUC) / Percent HC (Cmax) / Peak levels and bioavailability: oral; for AUC (ng/ml h) 0-8 h / Cmax: hydrocodone plus hydromorphone; for Percent HC (AUC) / Percent HC (Cmax): relative to hydrocodone bitartrate; for Percent Decrease 1 mg/kg vs. 5 mg/kg AUC / Percent Decrease 1 mg/kg vs. 5 mg/kg Cmax: oral bioavailability; for Peak levels and bioavailability: rat, 5 mg/kg
[3] = Intranasal bioavailability of hydrocodone conjugates in rats, LC/MS/MS; conditions: intranasal, 1 mg/kg dose; for AUC (ng/ml h) 0-1 h / Cmax: hydrocodone plus hydromorphone; for Percent HC (AUC) / Percent HC (Cmax): relative to hydrocodone bitartrate
[4] = Intravenous bioavailability of hydrocodone conjugates in rats, LC/MS/MS; conditions: intravenous, 1 mg/kg dose; for AUC (ng/ml h) 0-1 h / Cmax: hydrocodone plus hydromorphone; for Percent HC (AUC) / Percent HC (Cmax): relative to hydrocodone bitartrate

Row | SMILES | Percent AUC [1] | Percent Cmax [1] | hydrocodone plus hydromorphone concentration ([2]; 1 mg/kg dose, 0.5 Hours) | hydrocodone plus hydromorphone concentration ([2]; 1 mg/kg dose, 1.5 Hours) | hydrocodone plus hydromorphone concentration ([2]; 1 mg/kg dose, 3 Hours) | hydrocodone plus hydromorphone concentration ([2]; 1 mg/kg dose, 5 Hours) | hydrocodone plus hydromorphone concentration ([2]; 1 mg/kg dose, 8 Hours) | AUC (ng/ml h) 0-8 h ([2]; 1 mg/kg dose) | Cmax ([2]; 1 mg/kg dose) | Percent HC (AUC) ([2]; 1 mg/kg dose) | Percent HC (Cmax) ([2]; 1 mg/kg dose) | hydrocodone plus hydromorphone concentration ([3]; 5 Minutes) | hydrocodone plus hydromorphone concentration ([3]; 15 Minutes) | hydrocodone plus hydromorphone concentration ([3]; 30 Minutes) | hydrocodone plus hydromorphone concentration ([3]; 60 Minutes) | AUC (ng/ml h) 0-1 h [3] | Cmax [3] | Percent HC (AUC) [3] | Percent HC (Cmax) [3] | other results
1 | CC(Cc1ccccc1)NC(=O)C(N)CO (stereo not shown) [Ser-Amp, 2-amino-3-hydroxylpropanoic acid-(1-methyl-2-phenylethyl)-amide] | – | – | – | – | – | – | – | – | – | – | – | – | – | – | – | – | – | – | – | Bioequivalence with amphetamine ([1]; rat, oral): not bioequivalent with amphetamine
2 | CC(C)C[C@H](N)C(=O)N[C@@H](CCC(=O)O)C(=O)NC(C)Cc1ccccc1 (stereo partly shown) [LE-Amp] | 40% | 28% | – | – | – | – | – | – | – | – | – | – | – | – | – | – | – | – | – | –
3 | COc1ccc2c3c1O[C@H]1C(OC(=O)[C@H](Cc4ccccc4)NC(=O)[C@H](Cc4ccccc4)NC(=O)[C@H](Cc4ccccc4)NC(=O)[C@H](CCC(=O)O)NC(=O)[C@@H](N)CCC(=O)O)=CC[C@H]4[C@@H](C2)N(C)CC[C@]314 [EEFFF[SEQ ID NO: 3]-HC, Glu-Glu-Phe-Phe-Phe[SEQ ID NO: 3]-Hydrocodone] (H-EEFFF-X1) | – | – | 11.3 ng/mL | 4.1 ng/mL | 1.2 ng/mL | 1.2 ng/mL | 1.2 ng/mL | 20.7 ng·h/mL | 11.3 ng/mL | 108% | 119% | 34 ng/mL | 21 ng/mL | 24 ng/mL | 15 ng/mL | 21 ng·h/mL | 34 ng/mL | 14% | 13% | hydrocodone plus hydromorphone concentration ([4]; 5 Minutes): 135 ng/mL; hydrocodone plus hydromorphone concentration ([4]; 15 Minutes): 77 ng/mL; hydrocodone plus hydromorphone concentration ([4]; 30 Minutes): 140 ng/mL; hydrocodone plus hydromorphone concentration ([4]; 60 Minutes): 85 ng/mL; AUC (ng/ml h) 0-1 h [4]: 107 ng·h/mL; Cmax [4]: 135 ng/mL; Percent HC (AUC) [4]: 62%; Percent HC (Cmax) [4]: 75%
4 | CC[C@H](C)[C@H](NC(=O)[C@H](Cc1ccccc1)NC(=O)[C@H](Cc1ccccc1)NC(=O)[C@H](Cc1ccc(O)cc1)NC(=O)[C@@H](N)Cc1ccc(O)cc1)C(=O)OC1=CC[C@H]2[C@H]3Cc4ccc(OC)c5c4[C@@]2(CCN3C)[C@H]1O5 [YYFFI[SEQ ID NO: 3]-HC] (H-YYFFI-X1) | – | – | – | – | – | – | – | – | – | – | – | 28 ng/mL | 27 ng/mL | 16 ng/mL | 21 ng/mL | 20 ng·h/mL | 28 ng/mL | 100% | 5% | –
5 | CC(Cc1ccccc1)NC(=O)[C@H](Cc1ccccc1)NC(=O)[C@@H](N)Cc1ccccc1 (stereo partly shown) [FF-Amp] | 27% | 64% | – | – | – | – | – | – | – | – | – | – | – | – | – | – | – | – | – | –
6 | CC[C@H](C)[C@H](NC(=O)[C@H](CC(=O)O)NC(=O)[C@@H](N)CC(=O)O)C(=O)OC1=CC[C@H]2[C@H]3Cc4ccc(OC)c5c4[C@@]2(CCN3C)[C@H]1O5 [DDI-HC, Asp-Asp-Ile-Hydrocodone] | – | – | 14.9 ng/mL | 5 ng/mL | 0 ng/mL | 0 ng/mL | 0 ng/mL | 17.4 ng·h/mL | 14.9 ng/mL | 124% | 173% | 281 ng/mL | 121 ng/mL | 64 ng/mL | 16 ng/mL | 88 ng·h/mL | 281 ng/mL | 31% | 51% | Percent Decrease 1 mg/kg vs. 5 mg/kg AUC [2]: 9%; Percent Decrease 1 mg/kg vs. 5 mg/kg Cmax [2]: 9%; hydrocodone plus hydromorphone concentration ([2]; 5 mg/kg dose, 0.5 Hours): 115 ng/mL; hydrocodone plus hydromorphone concentration ([2]; 5 mg/kg dose, 1.5 Hours): 19 ng/mL; hydrocodone plus hydromorphone concentration ([2]; 5 mg/kg dose, 3 Hours): 11 ng/mL; hydrocodone plus hydromorphone concentration ([2]; 5 mg/kg dose, 5 Hours): 4 ng/mL; hydrocodone plus hydromorphone concentration ([2]; 5 mg/kg dose, 8 Hours): 3.1 ng/mL; AUC (ng/ml h) 0-8 h ([2]; 5 mg/kg dose): 145 ng·h/mL; Cmax ([2]; 5 mg/kg dose): 115 ng/mL; Percent HC (AUC) ([2]; 5 mg/kg dose): 113%; Percent HC (Cmax) ([2]; 5 mg/kg dose): 158%; Peak levels and bioavailability [2]: substantially decreased
7 | CC(Cc1ccccc1)NC(=O)[C@H](Cc1ccccc1)NC(=O)[C@H](CCC(=O)O)NC(=O)[C@@H](N)CCC(=O)O (stereo partly shown) [EEF-Amp] | 42% | 73% | – | – | – | – | – | – | – | – | – | – | – | – | – | – | – | – | – | –
8 | CC(Cc1ccccc1)NC(=O)C(N)CCC(=O)O (stereo not shown) [E-Amp] | 73% | 95% | – | – | – | – | – | – | – | – | – | – | – | – | – | – | – | – | – | –
9 | CC[C@H](C)[C@H](NC(=O)[C@H](Cc1ccccc1)NC(=O)[C@H](Cc1ccccc1)NC(=O)[C@H](CCC(=O)O)NC(=O)[C@@H](N)CCC(=O)O)C(=O)OC1=CC[C@H]2[C@H]3Cc4ccc(OC)c5c4[C@@]2(CCN3C)[C@H]1O5 [EEFFI[SEQ ID NO: 5]-HC, Glu-Glu-Phe-Phe-Ile[SEQ ID NO: 5]-Hydrocodone] (H-EEFFI-X1) | – | – | 12.9 ng/mL | 5.2 ng/mL | 4.2 ng/mL | 0 ng/mL | 1.6 ng/mL | 25.8 ng·h/mL | 12.9 ng/mL | 135% | 136% | – | – | – | – | – | – | – | – | Percent Decrease 1 mg/kg vs. 5 mg/kg AUC [2]: 70%; Percent Decrease 1 mg/kg vs. 5 mg/kg Cmax [2]: 65%; hydrocodone plus hydromorphone concentration ([2]; 5 mg/kg dose, 0.5 Hours): 44 ng/mL; hydrocodone plus hydromorphone concentration ([2]; 5 mg/kg dose, 1.5 Hours): 6.5 ng/mL; hydrocodone plus hydromorphone concentration ([2]; 5 mg/kg dose, 3 Hours): 5.7 ng/mL; hydrocodone plus hydromorphone concentration ([2]; 5 mg/kg dose, 5 Hours): 4.2 ng/mL; hydrocodone plus hydromorphone concentration ([2]; 5 mg/kg dose, 8 Hours): 4.5 ng/mL; AUC (ng/ml h) 0-8 h ([2]; 5 mg/kg dose): 68 ng·h/mL; Cmax ([2]; 5 mg/kg dose): 44 ng/mL; Percent HC (AUC) ([2]; 5 mg/kg dose): 41%; Percent HC (Cmax) ([2]; 5 mg/kg dose): 47%; Peak levels and bioavailability [2]: substantially decreased; hydrocodone plus hydromorphone concentration ([4]; 5 Minutes): 89 ng/mL; hydrocodone plus hydromorphone concentration ([4]; 15 Minutes): 76 ng/mL; hydrocodone plus hydromorphone concentration ([4]; 30 Minutes): 78 ng/mL; hydrocodone plus hydromorphone concentration ([4]; 60 Minutes): 66 ng/mL; AUC (ng/ml h) 0-1 h [4]: 66 ng·h/mL; Cmax [4]: 89 ng/mL; Percent HC (AUC) [4]: 38%; Percent HC (Cmax) [4]: 44%
